Measured values from US9908919B2, “Cyclic apelin derivatives for the treatment of heart failure” (priority 2013, dated 2018).
Where a SMILES comes first, the peptide text is derived from it. Bridges are numbered along the chain shown (N, C = ends). [ ]: non-standard residue; d: D form. pGlu = O=C1CC[C@@H](C(=O)O)N1; dNle = CCCC[C@@H](N)C(=O)O

Target: T1, human APJ receptor (hAPJ) (human, UniProt P35414 1-380)
T1 sequence (looked up): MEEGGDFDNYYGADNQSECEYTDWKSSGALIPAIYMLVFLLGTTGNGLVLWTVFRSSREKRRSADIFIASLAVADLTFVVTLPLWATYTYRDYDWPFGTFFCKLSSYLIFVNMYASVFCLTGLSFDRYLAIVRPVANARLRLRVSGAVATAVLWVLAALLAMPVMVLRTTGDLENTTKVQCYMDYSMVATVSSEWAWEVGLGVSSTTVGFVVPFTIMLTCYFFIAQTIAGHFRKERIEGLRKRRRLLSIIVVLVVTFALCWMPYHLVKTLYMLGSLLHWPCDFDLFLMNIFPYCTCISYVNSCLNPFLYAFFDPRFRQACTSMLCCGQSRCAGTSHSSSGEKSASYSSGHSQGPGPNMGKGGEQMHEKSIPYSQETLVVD
Test: cell-based or functional assay
Settings: not given

Molecule	hAPJ Ca^2+ Flux EC50
ERCRLCHKGPFAF (HELM PEPTIDE1{[Glp].R.[dC].R.L.C.H.K.G.P.[dF].[dA].[dF]}$PEPTIDE1,PEPTIDE1,3:R3-6:R3$$$V2.0; SMILES CC(C)C[C@@H]1NC(=O)[C@H](CCCNC(=N)N)NC(=O)[C@H](NC(=O)[C@H](CCCNC(=N)N)NC(=O)[C@@H]2CCC(=O)N2)CSSC[C@@H](C(=O)N[C@@H](Cc2c[nH]cn2)C(=O)N[C@@H](CCCCN)C(=O)NCC(=O)N2CCC[C@H]2C(=O)N[C@H](Cc2ccccc2)C(=O)N[C@H](C)C(=O)N[C@H](Cc2ccccc2)C(=O)O)NC1=O) [Example 4: pE-R-c*-R-L-C*-H-K-G-P-f-a-f-OH (Disulfide C3-C6)]	496 nM
ERCRLCHKGPLAF (HELM PEPTIDE1{[Glp].R.C.R.L.C.H.K.G.P.[CCCC[C@@H](N[*:1])C(=O)[*:2]].[dA].[dF]}$PEPTIDE1,PEPTIDE1,3:R3-6:R3$$$V2.0; SMILES CCCC[C@@H](NC(=O)[C@@H]1CCCN1C(=O)CNC(=O)[C@H](CCCCN)NC(=O)[C@H](Cc1c[nH]cn1)NC(=O)[C@@H]1CSSC[C@H](NC(=O)[C@H](CCCNC(=N)N)NC(=O)[C@@H]2CCC(=O)N2)C(=O)N[C@@H](CCCNC(=N)N)C(=O)N[C@@H](CC(C)C)C(=O)N1)C(=O)N[C@H](C)C(=O)N[C@H](Cc1ccccc1)C(=O)O) [Example 2: pE-R-C*-R-L-C*-H-K-G-P-(D-Nle)-a-f-OH (Disulfide C3-C6)]	77 nM
ERPRLCHKCPLPF (HELM PEPTIDE1{[Glp].R.P.R.L.C.H.K.C.P.[Nle].P.F}$PEPTIDE1,PEPTIDE1,6:R3-9:R3$$$V2.0; SMILES CCCC[C@H](NC(=O)[C@@H]1CCCN1C(=O)[C@@H]1CSSC[C@H](NC(=O)[C@H](CC(C)C)NC(=O)[C@H](CCCNC(=N)N)NC(=O)[C@@H]2CCCN2C(=O)[C@H](CCCNC(=N)N)NC(=O)[C@@H]2CCC(=O)N2)C(=O)N[C@@H](Cc2c[nH]cn2)C(=O)N[C@@H](CCCCN)C(=O)N1)C(=O)N1CCC[C@H]1C(=O)N[C@@H](Cc1ccccc1)C(=O)O) [Example 5: pE-R-P-R-L-C*-H-K-C*-P-Nle-P-F-OH (Disulfide C6-C9)]	6.9 nM
[pGlu]RCRLCHKGP[dNle]-{NH‑phenethyl} (disulfide 3-6) [Example 3: pE-R-C*-R-L-C*-H-K-G-P-(D-Nle)-NH(Phenethyl) (Disulfide C3-C6)]	871 nM
ERCRLCHKGPLPF (HELM PEPTIDE1{[Glp].R.C.R.L.C.H.K.G.P.[Nle].P.F}$PEPTIDE1,PEPTIDE1,3:R3-6:R3$$$V2.0; SMILES CCCC[C@H](NC(=O)[C@@H]1CCCN1C(=O)CNC(=O)[C@H](CCCCN)NC(=O)[C@H](Cc1c[nH]cn1)NC(=O)[C@@H]1CSSC[C@H](NC(=O)[C@H](CCCNC(=N)N)NC(=O)[C@@H]2CCC(=O)N2)C(=O)N[C@@H](CCCNC(=N)N)C(=O)N[C@@H](CC(C)C)C(=O)N1)C(=O)N1CCC[C@H]1C(=O)N[C@@H](Cc1ccccc1)C(=O)O) [Example 1: pE-R-C*-R-L-C*-H-K-G-P-Nle-P-F-OH (Disulfide C3-C6)]	3.5 nM

The remaining lines, values ahead:

hAPJ Ca^2+ Flux EC50	Molecule
12.3 nM	ERPRLCHKCPFAF (HELM PEPTIDE1{[Glp].R.P.R.L.[dC].H.K.C.P.[dF].[dA].[dF]}$PEPTIDE1,PEPTIDE1,6:R3-9:R3$$$V2.0; SMILES CC(C)C[C@H](NC(=O)[C@H](CCCNC(=N)N)NC(=O)[C@@H]1CCCN1C(=O)[C@H](CCCNC(=N)N)NC(=O)[C@@H]1CCC(=O)N1)C(=O)N[C@@H]1CSSC[C@@H](C(=O)N2CCC[C@H]2C(=O)N[C@H](Cc2ccccc2)C(=O)N[C@H](C)C(=O)N[C@H](Cc2ccccc2)C(=O)O)NC(=O)[C@H](CCCCN)NC(=O)[C@H](Cc2c[nH]cn2)NC1=O) [Example 6: pE-R-P-R-L-c*-H-K-C*-P-f-a-f-OH]
43.7 nM	ERPRLCHKGPLPC (HELM PEPTIDE1{[Glp].R.P.R.L.C.H.K.G.P.[Nle].P.C}$PEPTIDE1,PEPTIDE1,6:R3-13:R3$$$V2.0; SMILES CCCC[C@@H]1NC(=O)[C@@H]2CCCN2C(=O)CNC(=O)[C@H](CCCCN)NC(=O)[C@H](Cc2c[nH]cn2)NC(=O)[C@@H](NC(=O)[C@H](CC(C)C)NC(=O)[C@H](CCCNC(=N)N)NC(=O)[C@@H]2CCCN2C(=O)[C@H](CCCNC(=N)N)NC(=O)[C@@H]2CCC(=O)N2)CSSC[C@@H](C(=O)O)NC(=O)[C@@H]2CCCN2C1=O) [Example 8: pE-R-P-R-L-C*-H-K-G-P-Nle-P-C*-OH]
9.7 nM	ERPRLCHKCPLPF (HELM PEPTIDE1{[Glp].R.P.R.L.[O=C([C@@H](CCS[*:3])N[*:1])[*:2]].H.K.C.P.[CCCC[C@@H](N[*:1])C(=O)[*:2]].[dP].[dF]}$PEPTIDE1,PEPTIDE1,6:R3-9:R3$$$V2.0; SMILES CCCC[C@@H](NC(=O)[C@@H]1CCCN1C(=O)[C@@H]1CSSCC[C@@H](NC(=O)[C@H](CC(C)C)NC(=O)[C@H](CCCNC(=N)N)NC(=O)[C@@H]2CCCN2C(=O)[C@H](CCCNC(=N)N)NC(=O)[C@@H]2CCC(=O)N2)C(=O)N[C@@H](Cc2c[nH]cn2)C(=O)N[C@@H](CCCCN)C(=O)N1)C(=O)N1CCC[C@@H]1C(=O)N[C@H](Cc1ccccc1)C(=O)O) [Example 7: pE-R-P-R-L-(D-hC)*-H-K-C*-P-(D-Nle)-p-f-OH]

System: not listed separately
Test: in vitro
Settings: rat, plasma
Description: The calcium flux protocol described above was followed, with the following changes. The peptides were also incubated with 5% rat plasma (Bioreclamation # [sequence]-M, Na Heparin-treated). Readings were taken at time points t0 and t24 hrs, after incubation in a 37° C. tissue culture incubator. Peptide plasma half-life in minutes was estimated by calculating the following: • 1) LN((EC50 at t0)/(EC50 at t24 hrs)), • 2) Calculate slope of value above and • 3) t112=0.693/(slope^2).

Molecule	half-life
CCCC[C@@H](NC(=O)[C@@H]1CCCN1C(=O)CNC(=O)[C@H](CCCCN)NC(=O)[C@H](Cc1c[nH]cn1)NC(=O)[C@@H]1CSSC[C@H](NC(=O)[C@H](CCCNC(=N)N)NC(=O)[C@@H]2CCC(=O)N2)C(=O)N[C@@H](CCCNC(=N)N)C(=O)N[C@@H](CC(C)C)C(=O)N1)C(=O)NCCc1ccccc1 [Example 3, pE-R-C*-R-L-C*-H-K-G-P-(D-Nle)-NH(Phenethyl)] (HELM PEPTIDE1{[Glp].R.C.R.L.C.H.K.G.P.[CCCC[C@@H](N[*:1])C(=O)[*:2]].[c1ccc(CCN[*:1])cc1]}$PEPTIDE1,PEPTIDE1,3:R3-6:R3$$$V2.0)	1200 min
CC(C)C[C@@H]1NC(=O)[C@H](CCCNC(=N)N)NC(=O)[C@H](NC(=O)[C@H](CCCNC(=N)N)NC(=O)[C@@H]2CCC(=O)N2)CSSC[C@@H](C(=O)N[C@@H](Cc2c[nH]cn2)C(=O)N[C@@H](CCCCN)C(=O)NCC(=O)N2CCC[C@H]2C(=O)N[C@H](Cc2ccccc2)C(=O)N[C@H](C)C(=O)N[C@H](Cc2ccccc2)C(=O)O)NC1=O [Example 4, pE-R-c*-R-L-C*-H-K-G-P-f-a-f-OH] (HELM PEPTIDE1{[Glp].R.[dC].R.L.C.H.K.G.P.[dF].[dA].[dF]}$PEPTIDE1,PEPTIDE1,3:R3-6:R3$$$V2.0)	86 min
CCCC[C@@H](NC(=O)[C@@H]1CCCN1C(=O)CNC(=O)[C@H](CCCCN)NC(=O)[C@H](Cc1c[nH]cn1)NC(=O)[C@@H]1CSSC[C@H](NC(=O)[C@H](CCCNC(=N)N)NC(=O)[C@@H]2CCC(=O)N2)C(=O)N[C@@H](CCCNC(=N)N)C(=O)N[C@@H](CC(C)C)C(=O)N1)C(=O)N[C@H](C)C(=O)N[C@H](Cc1ccccc1)C(=O)O [Example 2, pE-R-C*-R-L-C*-H-K-G-P-(D-Nle)-a-f-OH] (HELM PEPTIDE1{[Glp].R.C.R.L.C.H.K.G.P.[CCCC[C@@H](N[*:1])C(=O)[*:2]].[dA].[dF]}$PEPTIDE1,PEPTIDE1,3:R3-6:R3$$$V2.0)	225 min
CCCC[C@H](NC(=O)[C@@H]1CCCN1C(=O)[C@@H]1CSSC[C@H](NC(=O)[C@H](CC(C)C)NC(=O)[C@H](CCCNC(=N)N)NC(=O)[C@@H]2CCCN2C(=O)[C@H](CCCNC(=N)N)NC(=O)[C@@H]2CCC(=O)N2)C(=O)N[C@@H](Cc2c[nH]cn2)C(=O)N[C@@H](CCCCN)C(=O)N1)C(=O)N1CCC[C@H]1C(=O)N[C@@H](Cc1ccccc1)C(=O)O [Example 5, pE-R-P-R-L-C*-H-K-C*-P-Nle-P-F-OH] (HELM PEPTIDE1{[Glp].R.P.R.L.C.H.K.C.P.[Nle].P.F}$PEPTIDE1,PEPTIDE1,6:R3-9:R3$$$V2.0)	16 min
CCCC[C@H](NC(=O)[C@@H]1CCCN1C(=O)CNC(=O)[C@H](CCCCN)NC(=O)[C@H](Cc1c[nH]cn1)NC(=O)[C@@H]1CSSC[C@H](NC(=O)[C@H](CCCNC(=N)N)NC(=O)[C@@H]2CCC(=O)N2)C(=O)N[C@@H](CCCNC(=N)N)C(=O)N[C@@H](CC(C)C)C(=O)N1)C(=O)N1CCC[C@H]1C(=O)N[C@@H](Cc1ccccc1)C(=O)O [Example 1, pE-R-C*-R-L-C*-H-K-G-P-Nle-P-F-OH] (HELM PEPTIDE1{[Glp].R.C.R.L.C.H.K.G.P.[Nle].P.F}$PEPTIDE1,PEPTIDE1,3:R3-6:R3$$$V2.0)	4 min

Second part, the molecule after the results:

half-life	Molecule
50 min	CC(C)C[C@H](NC(=O)[C@H](CCCNC(=N)N)NC(=O)[C@@H]1CCCN1C(=O)[C@H](CCCNC(=N)N)NC(=O)[C@@H]1CCC(=O)N1)C(=O)N[C@@H]1CSSC[C@@H](C(=O)N2CCC[C@H]2C(=O)N[C@H](Cc2ccccc2)C(=O)N[C@H](C)C(=O)N[C@H](Cc2ccccc2)C(=O)O)NC(=O)[C@H](CCCCN)NC(=O)[C@H](Cc2c[nH]cn2)NC1=O [Example 6, pE-R-P-R-L-c*-H-K-C*-P-f-a-f-OH] (HELM PEPTIDE1{[Glp].R.P.R.L.[dC].H.K.C.P.[dF].[dA].[dF]}$PEPTIDE1,PEPTIDE1,6:R3-9:R3$$$V2.0)
52 min	CCCC[C@@H](NC(=O)[C@@H]1CCCN1C(=O)[C@@H]1CSSCC[C@@H](NC(=O)[C@H](CC(C)C)NC(=O)[C@H](CCCNC(=N)N)NC(=O)[C@@H]2CCCN2C(=O)[C@H](CCCNC(=N)N)NC(=O)[C@@H]2CCC(=O)N2)C(=O)N[C@@H](Cc2c[nH]cn2)C(=O)N[C@@H](CCCCN)C(=O)N1)C(=O)N1CCC[C@@H]1C(=O)N[C@H](Cc1ccccc1)C(=O)O [Example 7, pE-R-P-R-L-(D-hC)*-H-K-C*-P-(D-Nle)-p-f-OH] (HELM PEPTIDE1{[Glp].R.P.R.L.[O=C([C@@H](CCS[*:3])N[*:1])[*:2]].H.K.C.P.[CCCC[C@@H](N[*:1])C(=O)[*:2]].[dP].[dF]}$PEPTIDE1,PEPTIDE1,6:R3-9:R3$$$V2.0)
